Measured values reported in US20050203281A1, “Production of recombinant fragments of muscle acetylcholine receptor and their use for ex vivo immunoadsorption of anti-ch receptor antibodies from myasthenic patients” (priority 2002, published 2005).
Entries after “also recorded” stand apart in the source; their conditions may differ.

Columns and labels:
alpha1-210 fragment = alpha1-210 fragment (Homo sapiens, UniProt P02708); conditions: read-out: concentration of unlabeled toxin giving 50% inhibition of 125I-alpha-BTX binding
[1] = test system: anti-AChR antibodies from MG sera; assay: Immunoadsorption of anti-AChR antibodies from MG sera by immobilized epsilon1-219, RIA with human AChR from TE671-epsilon cells; format: binding
Description: A subset of […] sera was also tested with gamma1-218 immobilized on CNBr-Sepharose (gray bars) and a subset of 22 sera was screened against epsilon1-219 immobilized on CNBr-Sepharose (blank bars) as described in the Example 3. Sera which have not been tested for immunoadsorption with epsilon1-219 are indicated in the X axis with open circles and sera which have not been tested on both gamma1-218 and epsilon1-219 are indicated with filled circles.
Immunoadsorption of MG autoantibodies by immobilized gamma1-218 or epsilon1-219 domains. 0.1 mg[…] of purified gamma1-218 or epsilon 1-219 mixed with 1.4 mg BSA was covalently immobilized on 1 gr of CNBr-Sepharose according to manufacturer's protocol. In parallel, an identical column was prepared with 1.5 mg BSA, to serve as control. Variable amounts of MG patient sera containing 20 fmoles of anti-AChR antibodies were incubated with 1 ug immobilized gamma1-218 mixed with BSA or the same amount of BSA at 4° C. for 2-3 h followed by centrifugation Samples of the supernatants, each containing an amount corresponding to 6 fmoles of preadsorbed anti-AChR antibody, were subsequently tested in a typical RIA MG diagnostic test as above. Sera which had been incubated with gamma1-218 were screened with the human AChR from TE671 cells (which contains alpha, beta, gamma and delta subunits) whereas sera immunoadsorbed with epsilon1-219 were screened with human AChR from TE671-epsilon cells(which contains alpha, beta, gamma and epsilon subunits) (Beeson et al., Neurology, 47,1552-1555, 1996). The percentage of immunoadsorption was estimated as above. Several MG sera from the group of the sera tested with immobilized alpha1-210 were assayed for binding to human AChR after incubation with immobilized gamma1-218 (43 sera) or epsilon1-219 (22 sera) or BSA only. Incubation with gamma1-218 led to a 29-56% reduction for 16% of the tested sera (7 sera out of 43), whereas it caused a 15%-30% reduction in another 28% of the tested sera (12 sera) (FIG. 6, gray bars). Other tested MG sera reached up to 68% immunoadsorption by gamma1-218 (not shown). […]

[2] = test system: anti-AChR antibodies from MG sera; assay: Immunoadsorption of anti-AChR antibodies from MG sera by CNBr-Sepharose-immobilized subunit domains, RIA with human AChR from TE671 cells; format: binding; conditions: for immunoadsorption of anti-AChR antibodies (in words): immobilized on Sepharose-CNBr
Description: FIG. 6 illustrates the immunoadsorption of anti-AChR antibodies from MG sera using immobilized alpha1-210 (black bars), gamma1-218 (grey bars) and epsilon1-219 (blank bars). Each subunit has been expressed in the yeast Pichia pastoris and the purified proteins have been covalently immobilized on CNBr-Sepharose beads. 64 MG positive sera were assayed for binding to human AChR after incubation with alpha1-210 immobilized on CNBr-Sepharose (together with BSA) or with just BSA immobilized on the same insoluble matrix. 2.5 ul of each MG patient serum were incubated with 0.2 ug immobilized alpha1-210 mixed with BSA or the same amount of BSA at […] for 2-3h (in a total volume of 0.16 ml) followed by centrifugation. Samples of the supernatants, each containing an amount corresponding to 0.9 ul of the treated MG sera were subsequently used in a typical RIA MG diagnostic test (Lindstrom et al., Meth. Enzymol. 74, 432460, 1981) with human AChR from TE671 cells. The percentage of immunoadsorption was estimated as described in the Example 3. Samples were processed in duplicates. Results shown (black bars) are an average of two experiments. Sera are sorted in decreasing percentage of immunoadsorption to immobilized alpha1-210.
FIG. 7 illustrates the immunoadsorption of anti-AChR antibodies from MG sera against immobilized alpha1-210 (black bars), gamma1-218 (gray bars) and a mix of both immobilized alpha1-210 and gamma1-218 (hatched bars). 9 MG sera were assayed for binding to human AChR after incubation of 20 fmoles anti-AChR MG antibodies with alpha1-210 (1 ug), or gamma1-218 (1 ug) or alpha1-210/gamma1-218 mix (containing 1 ug of each subunit) immobilized on CNBr-Sepharose. Incubation with just BSA immobilized to the same insoluble matrix served as a control to calculate the percent immunoadsorption against each of the subunits and the mix of both. After incubation with the Sepharose-immobilized proteins, sera were screened in a typical RIA experiment using TE671 AChR. The percentage of immunoadsorption was estimated as described in the Example 3. Samples were processed in duplicates. Results shown are an average of two experiments.
Immunoadsorption of MG autoantibodies by immobilized alpha1-210. 0.1 mg alpha1-210 mixed with 1.4 mg BSA was covalently bound to 0.5 gr CNBr-Sepharose according to manufacturer's protocol (Amersham). BSA was simply added to increase the protein/Sepharose ratio because the ratio of recombinant protein to Sepharose beads used would otherwise be too small; BSA is not necessary for larger scale experiments. In parallel, 1.5 mg BSA was bound to the same amount of CNBr-Sepharose under the same conditions as control. 2.5 ul MG patient sera were incubated with 0.2 ug immobilized alpha1-210 mixed with BSA, or the same amount of immobilized BSA alone, at 4° C. for 2-3 h (in a total volume of 0.16 ml) followed by centrifugation for bead precipitation. Samples of the supernatants, each containing an amount corresponding to 0.9 ul of these treated MG sera were subsequently used in a typical RIA MG diagnostic test (Lindstrom et al., Meth. Enzymol. 74, 432460, 1981) with human AChR from TE671 cells. The percentage of immunoadsorption was estimated as the ratio between the reduction in immunoprecipitated radiolabeled human AChR after incubation with alpha1-210 and the immunoprecipitated radiolabeled human AChR without incubation with alpha1-210 (incubation with plain immobilized BSA). 64 MG positive sera were assayed for binding to human AChR after incubation with immobilized alpha1-210 or BSA. […] We also tested immunoadsorption of the same set of MG sera by incubating 0.2 ug immobilized alpha1-210 with a fixed amount of anti-AChR antibodies (20 fmoles in variable volumes of MG sera depending on their titer) rather than a fixed serum volume.
Immunoadsorption of MG autoantibodies by immobilized gamma1-218 or epsilon1-219 domains. […]

[3] = test system: anti-AChR antibodies from MG sera; assay: as above; format: binding; conditions: expressed in E. coli, refolded, similarly immobilized, same MG sera

## alpha-bungarotoxin [alpha-BTX]
alpha1-210 fragment
  IC50: 5 nM

B1: epsilon1-219 (protein)
chain: DYKDDDDKKNEELRLYHHLFNNYDPGSRPVREPEDTVTISLKVTLTNLISLNEKEETLTTSVWIGIDWQDYRLNYSKDDFGGIETLRVPSELVWLPEIVLENNIDGQFGVAYDANVLVYEGGSVTWLPPAIYRSVCAVEVTYFPFDWQNCSLIFRSQTYNAEEVEFTFAVDNDGKTINKIDIDTEAYTENGEWAIDFCPGVIRRHHGGATDGPGETDVIYSLIIRRK
modifications: glycosylated
[1]; 27% of screened sera (6/22)
  reduction of anti-AChR antibodies, best-adsorbed sera: 30-54%
[1]; another 45% of the sera (10/22)
  reduction of anti-AChR antibodies, intermediate sera: 15%-30%
[1]; immobilized on Sepharose-CNBr
  immunoadsorption of anti-AChR antibodies (in words): lower but very significant percentages; also recorded: considerable amounts

B2: gamma1-218: extracellular domain of human muscle AChR gamma subunit, Pichia pastoris, FLAG and six-histidine tag (protein)
chain: DYKDDDDKRNQEERLLADLMQNYDPNLRPAERDSDVVNVSLKLTLTNLISLNEREEALTTNVWIEMQWCDYRLRWDPRDYEGLWVLRVPSTMVWRPDIVLENNVDGVFEVALYCNVLVSPDGCIYWLPPAIFRSACSISVTYFPFDWQNCSLIFQSQTYSTNEIDLQLSQEDGQTIEWIFIDPEAFTENGEWAIQHRPAKMLLDPAAPAQEAGHQKVVFYLLIQRK
modifications: glycosylated
[2]; 16% of tested sera (7 of 43), 1 ug immobilized protein, 20 fmoles antibody
  reduction of anti-AChR antibodies, best-adsorbed sera: 29-56%
[2]; another 28% of tested sera (12 sera)
  reduction of anti-AChR antibodies, intermediate sera: 15%-30%
[2]
  immunoadsorption of anti-AChR antibodies (in words): lower but very significant percentages; also recorded: large fractions; also recorded: considerable amounts
[2]; other tested MG sera (not shown)
  maximal immunoadsorption in other tested MG sera: up to 68%
[2]; serum no. 3, 1 ug of each immobilized subunit, 20 fmoles antibody
  immunoadsorption of serum no. 3: 22%

B3: beta1-222: extracellular domain of human muscle AChR beta subunit, Pichia pastoris, FLAG and six-histidine tag (protein)
chain: DYKDDDDKMTPGALLMLLGALGAPLAPGVRGSEAEGRLREKLFSGYDSSVRPAREVGDRVRVSVGLILAQLISLNEKDEEMSTKVYLDLEWTDYRLSWDPAEHDGIDSLRITAESVWLPDVVLLNNNDGNFDVALDISVVVSSDGSVRWQPPGIYRSSCSIQVTYFPFDWQNCTMVFSSYSYDSSEVSLQTGLGPDGQGHQEIHIHEGTFIENGQWEIIHKPSRLIQPPG
modifications: glycosylated
[2]
  immunoadsorption of anti-AChR antibodies (in words): lower but very significant percentages

B4: alpha1-208: extracellular alpha domain of human AChR expressed in E. coli and refolded according to Tsouloufis et al. (protein)
chain: SEHETRLVAKLFKDYSSVVRPVEDHRQVVEVTVGLQLIQLINVDEVNQIVTTNVRLKQQWVDYNLKWNPDDYGGVKKIHIPSEKIWRPDLVLYNNADGDFAIVKFTKVLLQYTGHITWTPPAIFKSYCEIIVTHFPFDEQNCSMKLGTWTYDGSVVAINPESDQPDLSNFMESGEWVIKESRGWKHSV
[3]
  immunoadsorbing efficiency compared with yeast-expressed alpha domain: significant but much lower
[3]; listed as alpha-subunit fragment expressed in E. coli
  immunoadsorbing efficiency compared with yeast-expressed alpha domain: much lower level
